The record followed here is patent US20200308299A1, “ANTI-GPC-1 ANTIBODY” (National University Corporation Kochi University, priority 2017, published 2020).

One test concerns TE14 cells. Description: ADC assay combining anti-GPC-1 antibody and MMAF binding secondary antibody, TE14 cells. The class given is cell-based. The settings on record: primary antibody plus MMAF secondary antibody. As to the method: FIG. 1 depicts a schematic diagram of an ADC used in an assay. This Example used a secondary antibody (MORADEC) to the anti-GPC1 antibody made in Example 1, to which an anticancer agent (MMAF) was bound via a linker.
2000 TE14 cells were added to a 96-well plate at 80 μl. The cells were cultured overnight at 37° C. in a 5% CO2 incubator. The next day, 10 μl of an anticancer agent bound secondary antibody and 10 μl of a primary antibody concentrated 10-fold relative to the final concentration was added to each well, so that the total amount was 100 μl. The cells were cultured for 6 days at 37° C. in a 5% CO2 incubator. The cell viability was measured by using a CellTiter-Glo Luminescent Cell Viability Assay reagent to detect the amount of ATP. RPMI1640+10% FBS+1% PS was used as the medium. The final concentrations of the primary antibody were 0, 0.004, 0.0156, 0.0625, 0.25, and 1.0 nM. 2 μg/ml of Fab-aMFc-CL-MMAF (model number: AM202AF-50, Moradec) was used as the secondary antibody.

In another test the test system is DU145 cells. Description: ADC assay combining anti-GPC-1 antibody and MMAF binding secondary antibody in DU145 cells. Format: cell-based. The settings on record: 3 days; for growth suppressing effect against DU145 cells: primary antibody plus MMAF secondary antibody 2 μg/ml; for EC50 values against DU145 cells: primary antibody plus MMAF secondary antibody. As to the method: 2000 DU145 cells were added to a 96-well plate at 80 μl. The cells were cultured overnight at 37° C. in a 5% CO2 incubator. The next day, 10 μl each of anticancer agent binding secondary antibody (2 μg/ml) and primary antibody concentrated 10-fold relative to the final concentration was added to each well, so that the total amount was 100 μl. The cells were cultured for 3 days at 37° C. in a 5% CO2 incubator. The cell viability was measured by using a CellTiter-Glo Luminescent Cell Viability Assay reagent to detect the amount of ATP. RPMI1640+10% FBS+1% PS was used as the medium. The final concentrations of the primary antibodies were […]. 2 μg/ml of Fab-aMFc-CL-MMAF (model number AM202AF-50, Moradec) was used as the secondary antibody. The EC50 value was analyzed with GraphPad Prism 6. The same experiment was conducted using 4000 MDA-MB231 cells as the control.

B1: clone 01a002: anti-human Glypican-1 antibody, heavy chain SEQ ID NO: 126, light chain SEQ ID NO: 128 (antibody)
heavy: MKHLWFFLLLVAAPRWVLSEVQLQQSGPELVKPGASVKISCKSSGYSFTRYYMHWVKHSPEKSLEWIGEINPSTGDTTYNQKFKAKATLTVDKSSSTAYMQLKSLTSEDSAVYYCAREKRDDGVLAYWGQGTLVTVSSAKTTAPSVYPLAPVCGDTTGSSVTLGCLVKGYFPEPVTLTWNSGSLSSGVHTFPAVLQSDLYTLSSSVTVTSSTWPSQSITCNVAHPASSTKVDKKIEPRGPTIKPCPPCKCPAPNLLGGPSVFIFPPKIKDVLMISLSPIVTCVVVDVSEDDPDVQISWFVNNVEVHTAQTQTHREDYNSTLRVVSALPIQHQDWMSGKEFKCKVNNKDLPAPIERTISKPKGSVRAPQVYVLPPPEEEMTKKQVTLTCMVTDFMPEDIYVEWTNNGKTELNYKNTEPVLDSDGSYFMYSKLRVEKKNWVERNSYSCSVVHEGLHNHHTTKSFSRTPGK
light: MRLLAQLLGLLMLWVPGSSGDIQMTQSPKFLPVSAGDRVTMTCKASQSVGNNVAWYQQKPGQSPKLLIYYASNRYTGVPDRFTGSGSGTDFTFTISSVQVEDLAVYFCQQHYSSPLTFGAGTKLELKRADAAPTVSIFPPSSEQLTSGGASVVCFLNNFYPKDINVKWKIDGSERQNGVLNSWTDQDSKDSTYSMSSTLTLTKDEYERHNSYTCEATHKTSTSPIVKSFNRNEC
B1: the “EC50 values against TE14 cells” value in the test on TE14 cells is recorded as “excellent EC50 values”. Besides, in the test on DU145 cells, the “growth suppressing effect against DU145 cells” value was “high growth suppressing effect” and the “EC50 values against DU145 cells” value was “excellent EC50 values”.

B2: clone 18: anti-Glypican-1 antibody, heavy chain SEQ ID NO: 202, light chain SEQ ID NO: 204; sequence from WO 2015/098112 (antibody)
heavy: AVTLDESGGGLQTPGGTLSLVCKASGFDFSSVNMFWVRQAPGKGLEFVAGIDNDATFTLYGSAVKGRASISRDNGQSTVRLQLNNLRAEDTGTYYCAKTLCSTTWGCGAYSAGDIDAWGHGTEVIVSS
light: ASTQPSSVSANPGETVKITCSGGGSSGYGYYGWYQQKSPGSAPVTVIYNNNKRPTDIPSRFSGALSGSTATLTITGVQVEDEAVYYCGSRDNTYVGIFGAGTTLTVL
Consider B2, for which the “EC50 values against TE14 cells” value in the test with TE14 cells is listed as “excellent EC50 values”. Moreover, the “EC50 values against DU145 cells” value in the test on DU145 cells is listed as “excellent EC50 values”.

B3: clone 02a014: anti-human Glypican-1 antibody, heavy chain SEQ ID NO: 178, light chain SEQ ID NO: 180 (antibody)
heavy: MKHLWFFLLLVAAPRWVLSEVQLQQSGPELVKPGASVKISCKASGYSFTGYYIHWVKQSPEKSLEWIGEINPSTGDITYNQKFKAKATLTVDKSSSTAYMQLKSLTSDDSAVYYCARERNYDRFAYWGQGTLVTVSSAKTTAPSVYPLAPVCGDTTGSSVTLGCLVKGYFPEPVTLTWNSGSLSSGVHTFPAVLQSDLYTLSSSVTVTSSTWPSQSITCNVAHPASSTKVDKKIEPRGPTIKPCPPCKCPAPNLLGGPSVFIFPPKIKDVLMISLSPIVTCVVVDVSEDDPDVQISWFVNNVEVHTAQTQTHREDYNSTLRVVSALPIQHQDWMSGKEFKCKVNNKDLPAPIERTISKPKGSVRAPQVYVLPPPEEEMTKKQVTLTCMVTDFMPEDIYVEWTNNGKTELNYKNTEPVLDSDGSYFMYSKLRVEKKNWVERNSYSCSVVHEGLHNHHTTKSFSRTPGK
light: MRLLAQLLGLLMLWVPGSSGSIVMTQTPALMAASPGEKVTITCSVSSSISSSNLHWYQQKSETSPKPWIYGTSNLASGVPVRFSGSGSGTSYSLTISSMEAEDAATYYCQQWSSYPLTFGAGTKLEIKRADAAPTVSIFPPSSEQLTSGGASVVCFLNNFYPKDINVKWKIDGSERQNGVLNSWTDQDSKDSTYSMSSTLTLTKDEYERHNSYTCEATHKTSTSPIVKSFNRNEC
B3: the “EC50 values against TE14 cells” value in the test with TE14 cells is reported as “excellent EC50 values”. Also, in the test on DU145 cells, the “EC50 values against DU145 cells” value is “excellent EC50 values”.

B4: clone 02a010: anti-human Glypican-1 antibody, heavy chain SEQ ID NO: 174, light chain SEQ ID NO: 176 (antibody)
heavy: MKHLWFFLLLVAAPRWVLSEVKLVESGGGLVKPGGSRKLSCAASGFTFSDYGMHWVRQAPEKGLEWVAYINSGSSTIYYADTVKGRFTISRDNAKNTLFLQMTSLRSGDTAMYYCARHSYYSYDVGGDYVMDYWGQGTSVTVSSAKTTAPSVYPLAPVCGDTTGSSVTLGCLVKGYFPEPVTLTWNSGSLSSGVHTFPAVLQSDLYTLSSSVTVTSSTWPSQSITCNVAHPASSTKVDKKIEPRGPTIKPCPPCKCPAPNLLGGPSVFIFPPKIKDVLMISLSPIVTCVVVDVSEDDPDVQISWFVNNVEVHTAQTQTHREDYNSTLRVVSALPIQHQDWMSGKEFKCKVNNKDLPAPIERTISKPKGSVRAPQVYVLPPPEEEMTKKQVTLTCMVTDFMPEDIYVEWTNNGKTELNYKNTEPVLDSDGSYFMYSKLRVEKKNWVERNSYSCSVVHEGLHNHHTTKSFSRTPGK
light: MRLLAQLLGLLMLWVPGSSGDIVLTQSPKFMSTSVGDRVSITCKASQDVGTAVAWYQQKPGQSPKLLIYWASTRHTGVPDRFTGSGSGTDFTLTISNVQSEDLADYFCQQYSSYPLTFGAGTKLEIKRADAAPTVSIFPPSSEQLTSGGASVVCFLNNFYPKDINVKWKIDGSERQNGVLNSWTDQDSKDSTYSMSSTLTLTKDEYERHNSYTCEATHKTSTSPIVKSFNRNEC
In the case of B4, in the test on TE14 cells, the “EC50 values against TE14 cells” value was “excellent EC50 values”. For the same molecule, in the test with DU145 cells, the “growth suppressing effect against DU145 cells” value is given as “high growth suppressing effect” and the “EC50 values against DU145 cells” value is recorded as “excellent EC50 values”.

B5: clone 02b006: anti-human Glypican-1 antibody, heavy chain SEQ ID NO: 194, light chain SEQ ID NO: 196 (antibody)
heavy: MKHLWFFLLLVAAPRWVLSEVQLVESGGGLVKPGGSRKLSCAASGFTFSDYGMHWVRQAPEKGLEWVAYISSGSSTIYYADTVKGRFTISRDNAKNTLFLQMTSLRSEDTAIYYCVRHSYYNYDIGGYYAMDYWGQGTSVTVSSAKTTAPSVYPLAPVCGDTTGSSVTLGCLVKGYFPEPVTLTWNSGSLSSGVHTFPAVLQSDLYTLSSSVTVTSSTWPSQSITCNVAHPASSTKVDKKIEPRGPTIKPCPPCKCPAPNLLGGPSVFIFPPKIKDVLMISLSPIVTCVVVDVSEDDPDVQISWFVNNVEVHTAQTQTHREDYNSTLRVVSALPIQHQDWMSGKEFKCKVNNKDLPAPIERTISKPKGSVRAPQVYVLPPPEEEMTKKQVTLTCMVTDFMPEDIYVEWTNNGKTELNYKNTEPVLDSDGSYFMYSKLRVEKKNWVERNSYSCSVVHEGLHNHHTTKSFSRTPGK
light: MRLLAQLLGLLMLWVPGSSGDIVLTQSPSSLSASLGERVSLTCRASQEISGYLSWLQQKPDGTIKRLIYAASTLDSGVPKRFSGSRSGSDYSLTISSLESEDFADYYCLQYASYPLTFGAGTKLEIKRADAAPTVSIFPPSSEQLTSGGASVVCFLNNFYPKDINVKWKIDGSERQNGVLNSWTDQDSKDSTYSMSSTLTLTKDEYERHNSYTCEATHKTSTSPIVKSFNRNEC
As to B5, in the test on TE14 cells, the “EC50 values against TE14 cells” value is recorded as “excellent EC50 values”. Besides, in the test with DU145 cells, the “EC50 values against DU145 cells” value is on record as “excellent EC50 values”.

B6: clone 02a002: anti-human Glypican-1 antibody, heavy chain SEQ ID NO: 166, light chain SEQ ID NO: 168 (antibody)
heavy: MKHLWFFLLLVAAPRWVLSEVKLVESGGGLVKPGGSRKLSCAASGFTFSDYGMHWVRQAPEKGLEWVAYISSGSSTIYYADTVKGRFTISRDNAKNTLFLQMTSLRSEDTAMYYCARHSYYSYDVGGDYVMDYWGQGTSVTVSSAKTTAPSVYPLAPVCGDTTGSSVTLGCLVKGYFPEPVTLTWNSGSLSSGVHTFPAVLQSDLYTLSSSVTVTSSTWPSQSITCNVAHPASSTKVDKKIEPRGPTIKPCPPCKCPAPNLLGGPSVFIFPPKIKDVLMISLSPIVTCVVVDVSEDDPDVQISWFVNNVEVHTAQTQTHREDYNSTLRVVSALPIQHQDWMSGKEFKCKVNNKDLPAPIERTISKPKGSVRAPQVYVLPPPEEEMTKKQVTLTCMVTDFMPEDIYVEWTNNGKTELNYKNTEPVLDSDGSYFMYSKLRVEKKNWVERNSYSCSVVHEGLHNHHTTKSFSRTPGK
light: MRLLAQLLGLLMLWVPGSSGDIVMSQSPKFMSTSVGDRVSITCKASQDVGTAVAWYQQKPGQSPKLLIYWASTRHTGVPDRFTGSGSGTDFTLTISNVQSEDLADYFCQQYSSYPLTFGAGTKLEIKRADAAPTVSIFPPSSEQLTSGGASVVCFLNNFYPKDINVKWKIDGSERQNGVLNSWTDQDSKDSTYSMSSTLTLTKDEYERHNSYTCEATHKTSTSPIVKSFNRNEC
For B6, in the test on TE14 cells, the “EC50 values against TE14 cells” value was “excellent EC50 values”. The “EC50 values against DU145 cells” value in the test on DU145 cells was “excellent EC50 values”.
